The record followed here is US20220089640A1 (published 2022).

The target in assay [1] is T1, biotinylated PCSK9 (UniProt Q8NBP7 31-692, limits assumed, biotinylated (site not stated)).
T1 construct: also called europium-labeled PCSK9
The assay is described as follows: given in the description of the Alexa FRET Standard assay; method not stated.

Assay [2] concerns the target T1, biotinylated PCSK9. Put plainly: given in the description of the Alexa FRET Plus assay; method not stated.

Numbered stars: 1 amine (or outer) side, 2 acyl side, 3 side chain; on linkers, the order of the positions; unused ones are H or OH. Bridge positions count the residues as written; N and C are the ends. Square brackets hold non-standard residues; d marks the D form. Tyr(OMe) = COc1ccc(C[C@H](N[*:1])C(=O)[*:2])cc1; Trp(5-F) = N[C@@H](Cc1c[nH]c2ccc(F)cc12)C(=O)O; mXylylene = c1cc(C[*:1])cc(C[*:2])c1; Mpa = O=C(O)CCS

T1 sequence (Q8NBP7 31-692 limits assumed): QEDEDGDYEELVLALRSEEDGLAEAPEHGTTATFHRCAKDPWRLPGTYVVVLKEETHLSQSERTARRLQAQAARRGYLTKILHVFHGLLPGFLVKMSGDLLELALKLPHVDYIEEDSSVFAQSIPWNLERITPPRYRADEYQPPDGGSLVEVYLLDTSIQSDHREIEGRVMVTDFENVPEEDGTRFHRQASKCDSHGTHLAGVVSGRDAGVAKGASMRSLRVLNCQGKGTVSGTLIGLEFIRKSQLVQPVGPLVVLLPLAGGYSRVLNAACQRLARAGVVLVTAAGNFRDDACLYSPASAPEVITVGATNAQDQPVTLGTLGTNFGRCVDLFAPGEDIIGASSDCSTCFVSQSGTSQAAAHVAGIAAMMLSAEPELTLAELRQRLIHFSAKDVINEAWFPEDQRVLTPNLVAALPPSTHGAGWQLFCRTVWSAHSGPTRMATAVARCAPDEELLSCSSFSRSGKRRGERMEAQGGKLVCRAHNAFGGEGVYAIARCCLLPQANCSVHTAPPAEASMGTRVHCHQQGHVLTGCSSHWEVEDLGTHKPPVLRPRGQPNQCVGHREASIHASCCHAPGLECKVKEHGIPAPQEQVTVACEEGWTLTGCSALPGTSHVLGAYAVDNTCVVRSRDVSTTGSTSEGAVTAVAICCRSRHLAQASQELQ

B1: Reagent A (peptide)
peptide: [Mpa]K(ALEXAFLUOR 647)G[Trp(5-F)][Trp(5-F)]DHY[2‑methylproline]C-NH2
modifications: linker N-10 via mXylylene
notes: also called AlexaFluor647 (AF) tagged cyclic peptide; AF cyclic peptide
The molecule B1 registered a Kd with biotinylated PCSK9 [1] of 83 nM.

B2: Reagent B (peptide)
peptide: [Mpa]K(ALEXAFLUOR 647)[dA][Trp(5-F)][Trp(5-F)]DH[Tyr(OMe)][2‑methylproline]C-NH2
modifications: linker N-10 via mXylylene
notes: as for B1
B2: the Kd with biotinylated PCSK9 [2] came out at 35 nM.

By Kd is commonly meant the free concentration of one partner at which half of the binding sites on the other are occupied at equilibrium, for simple one-to-one binding.
